Each sequence was assayed against c-Src SH2 (assay: SH2 binding enrichment of the phosphorylated peptide, bacterial display (enrichment ratio); higher = better substrate or ligand; peptides without Tyr show the background).
Work on VPVPGYTKLPE [SPRR3_Y146] yielded an SH2 binding enrichment of 0.458. Sequence PPGRSYSPCDY [TNS1_Y793_Y796C] has an SH2 binding enrichment of 1.26. Work on HELFVYKSDEN [DOCK3_Y548_C550S_YF] yielded an SH2 binding enrichment of 0.604. RFLRGYRQHAF [HLA-A_Y137_D140H_YF] showed an SH2 binding enrichment of 0.495. SDVCMYRKNIY [SYNE2_Y570] gave an SH2 binding enrichment of 0.418. HLTNQFMQRVA [PABPC4_Y382_Y382F] was tested, and the SH2 binding enrichment was 0.591. For GNHISYFQSDG [CACNA1C_Y1757_V1755I_YF], the SH2 binding enrichment was 0.401. ILGLEYSLRLP [HELZ2_Y1304_V1308L] showed an SH2 binding enrichment of 0.401. AQQPIYVRVEG [NLRP7_Y318] gave an SH2 binding enrichment of 0.609. Sequence PKGTGYIKTES [STAT1_Y701_L706S] has an SH2 binding enrichment of 0.425. Work on APIEDYGGGGG [B4GALT6_Y382] yielded an SH2 binding enrichment of 0.501. RAEIVYKSPVV [MAPT_Y711_G706R] showed an SH2 binding enrichment of 0.452. For RFGRKYKKVRF [F8_Y442_I438F], the SH2 binding enrichment was 0.374. FEELVYETVRV [FSHB_Y76_K72E] was tested, and the SH2 binding enrichment was 0.514. In the case of SPQAHYRLSAF [ADAMTS9_Y100_S96P], the SH2 binding enrichment is reported as 0.481. VHNLDYFKQTT [FGFR3_Y647_K650Q_YF] gave an SH2 binding enrichment of 0.449. Sequence KSIDEYLKLVG [RASAL2_Y381_E379D] has an SH2 binding enrichment of 0.556. Work on VLDSHYPEDEV [C1QBP_Y188_C186S] yielded an SH2 binding enrichment of 0.573. Sequence DFLSSYSAVNE [OAT_Y85_Q90E] has an SH2 binding enrichment of 2.35. MGCVNYGAFIN [GLB1_Y485_R482C_YF] showed an SH2 binding enrichment of 0.514. In the case of TYVVLYDAELT [ERCC4_Y581_R576T], the SH2 binding enrichment is reported as 1.53. Work on FVTSMYNEILI [TRPV1_Y310_M315I] yielded an SH2 binding enrichment of 4.5. IMICAYLLHRG [PTEN_Y138_V133I] showed an SH2 binding enrichment of 0.695. GGSSPYSRRLA [CDK13_Y351_P356A] gave an SH2 binding enrichment of 0.617. KFEDVYVGICL [B3GALNT1_Y269] showed an SH2 binding enrichment of 0.458. With NFADPYRQLQF [CTNND2_Y503_YF] the SH2 binding enrichment was 0.555. With TQIGQYGNGLK [MORC2_Y100] the SH2 binding enrichment was 0.509. Sequence CTTIHYNFMFN [TP53_Y234_C238F_YF] has an SH2 binding enrichment of 0.756. LGIDRYHAIVY [NPSR1_Y147_S143G] showed an SH2 binding enrichment of 5.09. HFVFFYSFLLK [PTEN_Y178_R173H_YF] showed an SH2 binding enrichment of 1.05. PESCLYKESWI [IQGAP2_Y630_L635I] gave an SH2 binding enrichment of 0.532. For KVKEQYQDVPM [PKP2_Y659], the SH2 binding enrichment was 0.728. KGEDFYCVTRH [FHL1_Y149_C153R] showed an SH2 binding enrichment of 0.357.

These sequences were tested against SHP2-C SH2 in the same assay as above.
VPVPGYTKLPE [SPRR3_Y146] was tested, and the SH2 binding enrichment was 0.445. For PPGRSYSPCDY [TNS1_Y793_Y796C], the SH2 binding enrichment was 0.772. HELFVYKSDEN [DOCK3_Y548_C550S_YF] was tested, and the SH2 binding enrichment was 0.662. RFLRGYRQHAF [HLA-A_Y137_D140H_YF] was tested, and the SH2 binding enrichment was 0.284. With SDVCMYRKNIY [SYNE2_Y570] the SH2 binding enrichment was 0.51. Sequence HLTNQFMQRVA [PABPC4_Y382_Y382F] has an SH2 binding enrichment of 0.733. With GNHISYFQSDG [CACNA1C_Y1757_V1755I_YF] the SH2 binding enrichment was 0.806. Work on ILGLEYSLRLP [HELZ2_Y1304_V1308L] yielded an SH2 binding enrichment of 0.648. In the case of AQQPIYVRVEG [NLRP7_Y318], the SH2 binding enrichment is reported as 0.682. PKGTGYIKTES [STAT1_Y701_L706S] was tested, and the SH2 binding enrichment was 0.427. APIEDYGGGGG [B4GALT6_Y382] gave an SH2 binding enrichment of 0.627. RAEIVYKSPVV [MAPT_Y711_G706R] was tested, and the SH2 binding enrichment was 0.765. Work on RFGRKYKKVRF [F8_Y442_I438F] yielded an SH2 binding enrichment of 0.564. FEELVYETVRV [FSHB_Y76_K72E] showed an SH2 binding enrichment of 0.702. For SPQAHYRLSAF [ADAMTS9_Y100_S96P], the SH2 binding enrichment was 0.688. In the case of VHNLDYFKQTT [FGFR3_Y647_K650Q_YF], the SH2 binding enrichment is reported as 0.573. Sequence KSIDEYLKLVG [RASAL2_Y381_E379D] has an SH2 binding enrichment of 0.797. VLDSHYPEDEV [C1QBP_Y188_C186S] showed an SH2 binding enrichment of 0.697. For DFLSSYSAVNE [OAT_Y85_Q90E], the SH2 binding enrichment was 0.902. With MGCVNYGAFIN [GLB1_Y485_R482C_YF] the SH2 binding enrichment was 0.793. In the case of TYVVLYDAELT [ERCC4_Y581_R576T], the SH2 binding enrichment is reported as 1.36. FVTSMYNEILI [TRPV1_Y310_M315I] gave an SH2 binding enrichment of 1.09. IMICAYLLHRG [PTEN_Y138_V133I] gave an SH2 binding enrichment of 1.16. With GGSSPYSRRLA [CDK13_Y351_P356A] the SH2 binding enrichment was 1.11. Work on KFEDVYVGICL [B3GALNT1_Y269] yielded an SH2 binding enrichment of 0.41. NFADPYRQLQF [CTNND2_Y503_YF] gave an SH2 binding enrichment of 1.04. Work on TQIGQYGNGLK [MORC2_Y100] yielded an SH2 binding enrichment of 0.661. With CTTIHYNFMFN [TP53_Y234_C238F_YF] the SH2 binding enrichment was 1.08. In the case of LGIDRYHAIVY [NPSR1_Y147_S143G], the SH2 binding enrichment is reported as 0.818. In the case of HFVFFYSFLLK [PTEN_Y178_R173H_YF], the SH2 binding enrichment is reported as 1.14. Work on PESCLYKESWI [IQGAP2_Y630_L635I] yielded an SH2 binding enrichment of 0.315. Sequence KVKEQYQDVPM [PKP2_Y659] has an SH2 binding enrichment of 0.776. KGEDFYCVTRH [FHL1_Y149_C153R] showed an SH2 binding enrichment of 0.694.

These sequences were tested against Grb2 SH2 (UniProt P62993) in the same assay as above.
Sequence of Grb2 SH2 (P62993 whole entry, looked up): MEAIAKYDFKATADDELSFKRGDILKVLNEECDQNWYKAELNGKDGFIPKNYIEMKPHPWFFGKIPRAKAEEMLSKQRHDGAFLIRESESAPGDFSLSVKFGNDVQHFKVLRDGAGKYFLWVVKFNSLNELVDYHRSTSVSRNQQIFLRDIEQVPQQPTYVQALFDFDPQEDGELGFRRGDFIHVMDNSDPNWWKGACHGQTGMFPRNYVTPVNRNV
Work on VPVPGYTKLPE [SPRR3_Y146] yielded an SH2 binding enrichment of 0.635. With PPGRSYSPCDY [TNS1_Y793_Y796C] the SH2 binding enrichment was 1. HELFVYKSDEN [DOCK3_Y548_C550S_YF] showed an SH2 binding enrichment of 0.973. RFLRGYRQHAF [HLA-A_Y137_D140H_YF] was tested, and the SH2 binding enrichment was 0.636. SDVCMYRKNIY [SYNE2_Y570] gave an SH2 binding enrichment of 0.645. HLTNQFMQRVA [PABPC4_Y382_Y382F] was tested, and the SH2 binding enrichment was 1.16. GNHISYFQSDG [CACNA1C_Y1757_V1755I_YF] showed an SH2 binding enrichment of 0.927. For ILGLEYSLRLP [HELZ2_Y1304_V1308L], the SH2 binding enrichment was 0.877. In the case of AQQPIYVRVEG [NLRP7_Y318], the SH2 binding enrichment is reported as 0.84. For PKGTGYIKTES [STAT1_Y701_L706S], the SH2 binding enrichment was 0.997. Sequence APIEDYGGGGG [B4GALT6_Y382] has an SH2 binding enrichment of 0.702. RAEIVYKSPVV [MAPT_Y711_G706R] was tested, and the SH2 binding enrichment was 0.869. Work on RFGRKYKKVRF [F8_Y442_I438F] yielded an SH2 binding enrichment of 0.724. FEELVYETVRV [FSHB_Y76_K72E] was tested, and the SH2 binding enrichment was 0.884. Sequence SPQAHYRLSAF [ADAMTS9_Y100_S96P] has an SH2 binding enrichment of 0.971. For VHNLDYFKQTT [FGFR3_Y647_K650Q_YF], the SH2 binding enrichment was 0.795. Sequence KSIDEYLKLVG [RASAL2_Y381_E379D] has an SH2 binding enrichment of 0.992. For VLDSHYPEDEV [C1QBP_Y188_C186S], the SH2 binding enrichment was 1.06. DFLSSYSAVNE [OAT_Y85_Q90E] showed an SH2 binding enrichment of 0.864. For MGCVNYGAFIN [GLB1_Y485_R482C_YF], the SH2 binding enrichment was 0.752. With TYVVLYDAELT [ERCC4_Y581_R576T] the SH2 binding enrichment was 1.64. FVTSMYNEILI [TRPV1_Y310_M315I] gave an SH2 binding enrichment of 0.929. In the case of IMICAYLLHRG [PTEN_Y138_V133I], the SH2 binding enrichment is reported as 1.23. GGSSPYSRRLA [CDK13_Y351_P356A] showed an SH2 binding enrichment of 0.875. Sequence KFEDVYVGICL [B3GALNT1_Y269] has an SH2 binding enrichment of 0.647. With NFADPYRQLQF [CTNND2_Y503_YF] the SH2 binding enrichment was 0.878. In the case of TQIGQYGNGLK [MORC2_Y100], the SH2 binding enrichment is reported as 0.991. For CTTIHYNFMFN [TP53_Y234_C238F_YF], the SH2 binding enrichment was 0.975. LGIDRYHAIVY [NPSR1_Y147_S143G] gave an SH2 binding enrichment of 0.823. HFVFFYSFLLK [PTEN_Y178_R173H_YF] gave an SH2 binding enrichment of 2.43. PESCLYKESWI [IQGAP2_Y630_L635I] showed an SH2 binding enrichment of 0.827. In the case of KVKEQYQDVPM [PKP2_Y659], the SH2 binding enrichment is reported as 0.801. Work on KGEDFYCVTRH [FHL1_Y149_C153R] yielded an SH2 binding enrichment of 0.766.

These sequences were tested on c-Src (assay: phosphorylation enrichment, bacterial display (enrichment ratio); higher = better substrate or ligand; peptides without Tyr show the background).
Sequence VPVPGYTKLPE [SPRR3_Y146] has a phosphorylation enrichment of 0.419. For PPGRSYSPCDY [TNS1_Y793_Y796C], the phosphorylation enrichment was 0.581. HELFVYKSDEN [DOCK3_Y548_C550S_YF] gave a phosphorylation enrichment of 0.616. RFLRGYRQHAF [HLA-A_Y137_D140H_YF] showed a phosphorylation enrichment of 0.805. For SDVCMYRKNIY [SYNE2_Y570], the phosphorylation enrichment was 0.424. HLTNQFMQRVA [PABPC4_Y382_Y382F] was tested, and the phosphorylation enrichment was 0.541. With GNHISYFQSDG [CACNA1C_Y1757_V1755I_YF] the phosphorylation enrichment was 0.395. For ILGLEYSLRLP [HELZ2_Y1304_V1308L], the phosphorylation enrichment was 1.08. With AQQPIYVRVEG [NLRP7_Y318] the phosphorylation enrichment was 3.6. For PKGTGYIKTES [STAT1_Y701_L706S], the phosphorylation enrichment was 0.601. APIEDYGGGGG [B4GALT6_Y382] gave a phosphorylation enrichment of 0.449. RAEIVYKSPVV [MAPT_Y711_G706R] showed a phosphorylation enrichment of 0.723. RFGRKYKKVRF [F8_Y442_I438F] showed a phosphorylation enrichment of 0.988. Work on FEELVYETVRV [FSHB_Y76_K72E] yielded a phosphorylation enrichment of 5.16. Sequence SPQAHYRLSAF [ADAMTS9_Y100_S96P] has a phosphorylation enrichment of 0.503. Sequence VHNLDYFKQTT [FGFR3_Y647_K650Q_YF] has a phosphorylation enrichment of 0.542. For KSIDEYLKLVG [RASAL2_Y381_E379D], the phosphorylation enrichment was 0.37. With VLDSHYPEDEV [C1QBP_Y188_C186S] the phosphorylation enrichment was 0.525. For DFLSSYSAVNE [OAT_Y85_Q90E], the phosphorylation enrichment was 0.468. MGCVNYGAFIN [GLB1_Y485_R482C_YF] showed a phosphorylation enrichment of 1.19. Sequence TYVVLYDAELT [ERCC4_Y581_R576T] has a phosphorylation enrichment of 0.795. For FVTSMYNEILI [TRPV1_Y310_M315I], the phosphorylation enrichment was 0.621. With IMICAYLLHRG [PTEN_Y138_V133I] the phosphorylation enrichment was 0.566. Work on GGSSPYSRRLA [CDK13_Y351_P356A] yielded a phosphorylation enrichment of 0.468. KFEDVYVGICL [B3GALNT1_Y269] gave a phosphorylation enrichment of 2.92. For NFADPYRQLQF [CTNND2_Y503_YF], the phosphorylation enrichment was 0.563. For TQIGQYGNGLK [MORC2_Y100], the phosphorylation enrichment was 0.272. CTTIHYNFMFN [TP53_Y234_C238F_YF] showed a phosphorylation enrichment of 0.586. Work on LGIDRYHAIVY [NPSR1_Y147_S143G] yielded a phosphorylation enrichment of 0.621. HFVFFYSFLLK [PTEN_Y178_R173H_YF] showed a phosphorylation enrichment of 1.55. Sequence PESCLYKESWI [IQGAP2_Y630_L635I] has a phosphorylation enrichment of 0.825. Work on KVKEQYQDVPM [PKP2_Y659] yielded a phosphorylation enrichment of 0.395. KGEDFYCVTRH [FHL1_Y149_C153R] gave a phosphorylation enrichment of 0.794.

From the supplement of paper PMC10065799, “High-throughput profiling of sequence recognition by tyrosine kinases and SH2 domains using bacterial peptide display” (eLife, 2023)
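Wherever SH2 binding enrichment of the phosphorylated peptide, bacterial display is given: peptide library displayed on the E. coli surface as eCPX fusions, selected cells deep-sequenced, score is each peptide's frequency after selection divided by its frequency in the input.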
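Wherever phosphorylation enrichment, bacterial display is given: 11-residue human phosphosite peptides and single-mutation variants displayed on the E. coli surface, counted by deep sequencing, each peptide's frequency after selection divided by its frequency in the unselected input library; frequency after pTyr selection over input frequency; kinase dosed for 20-30% of maximal phosphorylation in three min.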
